Entries after “also recorded” stand apart in the source; their conditions may differ.
B1: QYD45: AAD-like enzyme, SEQ ID NO. 89 (protein)
chain: MARPFDIAPLDATFGAIVTGVKLAGLDEACWRALHAAWLQYALLVFPNQHLARVEQIAFAKRFGPLEFEMAAISNVRADGSLRVETDNDDMMKILKGNMGWHADSTYMPVQAKGAVFSAEVVPTIGGQTGFADMRAAYDALDEDLKARVETLQAYHSLHYSQSRLGHETKKADGEYSGYGLHDGPVPLRPLVKTHPETGRKSLLIGRHAHAIPGMEPGESERFLQELIDFACQPPRVYRHNWAPGDAVLWDNRCLLHQATPWDMTQKRIMWHSRIAGDAAGETALAH
modifications: Synthetic polypeptide, QYD45, D45
B2: QYD49: AAD-like enzyme, SEQ ID NO. 97 (protein)
chain: MARTFDIEPLAGTTFGAVVRGMKVAILDDAGWRDLYAAWLKYALLVFPGQHLKRDEQIAFAKRFGALEFEMAALSNVKSDGTLRQEKDNDDMMKILKGNMGWHADSTYMPVQAKGAVFSAEIVPGAGGQTGFADMRAAYDALDAGRKAKVERLAAHHSLHYSQSKLGHQTKKQDGEYSGYGLHDGPVPLRPLVKTHPETGRKSLLIGRHAHNIPGMDKAESERLLQELVDFACQPPRVYHHDWTAGDAVVWDNRCLLHQATPWDMTQPRVMWHSRIAGDPRSEAALGVTAVSAAASG
modifications: Synthetic polypeptide, QYD49, D49
B3: QYD43: AAD-like enzyme, SEQ ID NO. 85 (protein)
chain: MRRLHIAPTGATLGATVTGVSLAALDEPTWQAIYRAWLEHALLIFPGQHLSNQQQIGFARRFGAIERIGGGEIVAISNVKADGRVRAHTPAEWDDMMKVIVGNMAWHADSTYMPVMAKGAVFSGELVPTERGETSFADMRAAYDALDQATRALVHQRSAHHSLVYSQSKLGHVPGAQSAYLGYGMDQTTAPLRPLVKVHPETGRQSLLIGRHAHAIPGMDPAESEVFLEGLVEWACQPPRIHTHHWTAGDVVLWDNRCLLHRAMPWDLAQPRVMWHSRLAGDPVAEAALPPVAPAAATH
modifications: Synthetic polypeptide, QYD43, D43

Experiments:
[1] = Chromogenic reaction of degrading herbicides in bacteria: 2,4-D; type: cell-based, Escherichia coli; details: recombinant E. coli expressing the gene, 2,4-D added to the medium, red = phenols
Outline: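 Colour from 2,4-D degradation was detected at A510 after 5 min at room temperature, with 4-aminoantipyrine and ferricyanide added to culture supernatant in pH 10 borate. Cultures were AAD12-expressing or empty-vector (pET15b) BL21(DE3), grown overnight at 28 °C with 0.5 mM 2,4-D, 0.1 mM IPTG and 2 mM α-ketoglutarate.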

Arabidopsis thaliana [2] = assay: Herbicide resistance of transgenic Arabidopsis thaliana seedlings on plate medium (root growth); type: in vivo; details: plate medium with 2,4-D (0.3 μmol)
[3] = type: cell-based, Escherichia coli
Arabidopsis thaliana [4] = assay: Herbicide resistance of transgenic Arabidopsis thaliana seedlings on plate medium (root growth); type: in vivo; details: for Resistance of transgenic Arabidopsis thaliana: 2,4-D / Resistance of transgenic Arabidopsis thaliana: MCPA: Arabidopsis overexpressing the gene
Outline: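 After 3 days of cold treatment at 4 °C, seeds were cultured at 22 °C under a 16 h/8 h light cycle on MS herbicide medium (0.3 μM 2,4-D in the screen). Root growth was scored against wild-type seedlings at one week. The material was T2 AAD-overexpressing lines (AtUbi10 promoter, MAS terminator, hygromycin marker), two events each, tested with 2,4-D, 2,4-DB sodium and MCPA.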

[5] = Chromogenic reaction of degrading herbicides in bacteria: triclopyr; type: cell-based, Escherichia coli; details: recombinant E. coli expressing the gene
Procedure: To transform the plasmids to be tested, an AAD12-expressing plasmid and a blank control plasmid pET15b were respectively transformed into the protein expression E. coli BL21(DE3) strains. A monoclone was selected and inoculated in a 10 ml centrifuge tube with 3 ml LB medium, and cultivated at 37° C., 200 rpm for 6-8 hours. […] The temperature was switched to 28° C. and the cultivation continued overnight. In the next morning, 200 μL of each bacteria solution was taken and centrifuged to precipitate thallus, 180 μL of the supernatant was taken and added in a 96-well plate, and 20 μL of borate buffer of pH 10 was added. Then the mixture was added with 2 μL of 8% potassium ferricyanide and mixed well, followed by adding 2 μL of 2% 4-aminoantipyrine, and placed at room temperature for 5 min to observe the color and detect the A510 value. […]

| Molecule | Chromogenic reaction of degrading herbicides in bacteria: 2,4-D [1] | Chromogenic reaction of degrading herbicides in bacteria: 2,4-D ([1]; listed as D45) | 2,4-D resistance of T1 generation transgenic seedlings (seminal root growth) (Arabidopsis thaliana [2]) | Chromogenic reaction of degrading herbicides in bacteria: MCPA [3] | Resistance of transgenic Arabidopsis thaliana: 2,4-D (Arabidopsis thaliana [4]) | Resistance of transgenic Arabidopsis thaliana: MCPA (Arabidopsis thaliana [4]) | MCPA resistance of T1 generation transgenic seedlings (Arabidopsis thaliana [4]; plate medium with MCPA (0.1 μmol)) | 2,4-DB sodium resistance of T2 generation transgenic plants (Arabidopsis thaliana [4]; plate medium, 2,4-DB sodium (0.7 μmol), two events per transformant) | MCPA resistance of T2 generation transgenic plants (Arabidopsis thaliana [4]; plate medium, MCPA (0.1 μmol), two events per transformant) | Chromogenic reaction of degrading herbicides in bacteria: 2,4-D ([1]; listed as D49) | Chromogenic reaction of degrading herbicides in bacteria: Triclopyr [5] | Chromogenic reaction of degrading herbicides in bacteria: Triclopyr ([5]; listed as D43) | Chromogenic reaction of degrading herbicides in bacteria: 2,4-D ([1]; listed as D43) |
| --- | --- | --- | --- | --- | --- | --- | --- | --- | --- | --- | --- | --- | --- |
| B1 | Yes | could degrade 2,4-D; also recorded: capable of degrading 2,4-D | showing tolerance to 2,4-D; also recorded: lower resistance | Yes | Yes | Yes | obvious resistance | obvious resistance | obvious resistance | – | – | – | – |
| B2 | Yes | – | showing tolerance to 2,4-D | Yes | Yes | Yes | – | – | – | could degrade 2,4-D; also recorded: capable of degrading 2,4-D | – | – | – |
| B3 | Yes | – | showing tolerance to 2,4-D | Yes | Yes | Yes | – | – | – | – | Yes | slight degradation | could degrade 2,4-D; also recorded: capable of degrading 2,4-D |

Reference: patent US20240043859A1, “HERBICIDE-RESISTANT PROTEIN, AND GENE AND USE THEREOF” (QINGDAO KINGAGROOT CHEMICAL COMPOUND CO., LTD., priority 2020, published 2024)
